For series [1], the target named is T1, LtrC (phage phi55 ORF34) (Staphylococcus aureus phage phi55, UniProt Q4ZB49 1-133).
T1 sequence: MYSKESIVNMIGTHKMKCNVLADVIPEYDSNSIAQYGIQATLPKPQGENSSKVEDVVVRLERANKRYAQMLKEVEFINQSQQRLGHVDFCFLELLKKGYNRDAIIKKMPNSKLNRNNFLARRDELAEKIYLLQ
As to the kind of experiment: EMSA. Background: In EMSA bound probe runs differently from free probe, usually more slowly.

Series [2] concerns the target T2, ArpU (phage phiFL2A late transcriptional regulator) (Enterococcus faecalis phage phiFL2A, UniProt D2IZF3 1-155).
T2 sequence: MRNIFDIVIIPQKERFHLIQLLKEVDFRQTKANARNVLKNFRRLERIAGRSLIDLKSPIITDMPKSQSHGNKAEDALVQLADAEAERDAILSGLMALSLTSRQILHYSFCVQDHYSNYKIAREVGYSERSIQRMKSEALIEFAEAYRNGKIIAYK
As to the kind of experiment: EMSA.

B1: LtrC wt probe (phi55 repeat region, ORF34wt) (dsDNA)
DNA 1: TTGGCAGAAAAGATTTATCTACTACAGTGACGAAAATGACAAAATGACAGAAATGACGAAAATGACACTATTTTTAAACTGTGAATTAATTTTATATA
DNA 2: TATATAAAATTAATTCACAGTTTAAAAATAGTGTCATTTTCGTCATTTCTGTCATTTTGTCATTTTCGTCACTGTAGTAGATAAATCTTTTCTGCCAA
For the molecule B1, the binding result in series [1] is on record as “binds”.

B2: ArpU wt probe (phiFL2A repeat region) (dsDNA)
DNA 1: TAATTTTGGCGGTTTTTGGCGGAAAGTTGGCGGTTTTATACGAATTTGAGTGCTAATATAGTAATATCGAAAG
DNA 2: CTTTCGATATTACTATATTAGCACTCAAATTCGTATAAAAACCGCCAACTTTCCGCCAAAAAACCGCAAAATTA
As to B2, in series [2], the binding result is “binds”.
